{"source": "patent US8212003", "test_system": "fusion protein SFH (SAK-GSIEGR-HV2)"}
{"substance": "blood coagulant factor FXa", "values": [{"measurement": "Anticoagulant activities (clot method) after cleavage of SFH with 0.2 U of FXa for 10 min at 37° C.", "result": 2560, "unit": "ATU"}]}
